Legend:
Experiment in all cases: holdup assay
Parameters in all cases: key: below the threshold = too weak to quantify, mostly under pKd 3.1 to 4
SCRIB_2, Q14160 = target: SCRIB_2, Q14160
DLG3_2, Q92796 = target: T1, DLG3_2, Q92796
T1 sequence (Q92796 221-321, limits assumed, looked up): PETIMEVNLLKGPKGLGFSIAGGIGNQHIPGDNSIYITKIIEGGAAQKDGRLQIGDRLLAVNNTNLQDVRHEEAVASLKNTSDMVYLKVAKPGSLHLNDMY

FRMPD3, Q5JV73 = target: FRMPD3, Q5JV73
GRIP1_5, Q9Y3R0 = target: T2, GRIP1_5, Q9Y3R0
T2 sequence (Q9Y3R0 568-668, limits assumed, looked up): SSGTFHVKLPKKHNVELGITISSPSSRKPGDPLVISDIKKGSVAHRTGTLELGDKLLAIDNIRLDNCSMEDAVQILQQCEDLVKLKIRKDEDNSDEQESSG

DVL3, Q92997 = target: T3, DVL3, Q92997
T3 sequence (Q92997 244-331, limits assumed, looked up): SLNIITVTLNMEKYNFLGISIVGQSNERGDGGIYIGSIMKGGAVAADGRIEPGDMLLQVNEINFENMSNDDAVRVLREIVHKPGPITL

SNTG2, Q9NY99 = target: T4, SNTG2, Q9NY99
T4 sequence (Q9NY99 68-166, limits assumed, looked up): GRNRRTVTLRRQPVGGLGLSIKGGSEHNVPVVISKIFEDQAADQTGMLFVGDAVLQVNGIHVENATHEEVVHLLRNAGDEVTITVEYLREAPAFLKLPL

PARD3_3, Q8TEW0 = target: PARD3_3, Q8TEW0
PDZRN3_1, Q9UPQ7 = target: T5, PDZRN3_1, Q9UPQ7
T5 sequence (Q9UPQ7 244-349, limits assumed, looked up): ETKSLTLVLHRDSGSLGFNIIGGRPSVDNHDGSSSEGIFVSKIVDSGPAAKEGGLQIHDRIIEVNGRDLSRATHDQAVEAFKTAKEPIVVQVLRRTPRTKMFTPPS

APBA1_1, Q02410 = target: T6, APBA1_1, Q02410
T6 sequence (Q02410 651-752, limits assumed, looked up): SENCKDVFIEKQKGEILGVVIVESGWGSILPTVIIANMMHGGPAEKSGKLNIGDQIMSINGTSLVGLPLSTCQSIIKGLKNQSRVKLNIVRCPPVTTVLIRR

TX1BP3, O14907 = target: T7, TX1BP3, O14907
T7 sequence (O14907 10-122, limits assumed, looked up): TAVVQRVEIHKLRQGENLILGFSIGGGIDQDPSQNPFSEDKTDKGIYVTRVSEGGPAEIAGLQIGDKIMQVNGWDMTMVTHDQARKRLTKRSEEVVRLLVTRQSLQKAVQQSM

LNX1_3, Q8TBB1 = target: LNX1_3, Q8TBB1
GRIP2_4, Q9C0E4 = target: GRIP2_4, Q9C0E4
LIN7B, Q9HAP6 = target: T8, LIN7B, Q9HAP6
T8 sequence (Q9HAP6 88-185, limits assumed, looked up): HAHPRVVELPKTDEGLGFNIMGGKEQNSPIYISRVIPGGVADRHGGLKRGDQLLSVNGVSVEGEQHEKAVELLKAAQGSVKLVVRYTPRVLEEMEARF

GRASP, Q7Z6J2 = target: GRASP, Q7Z6J2
LNX1_1, Q8TBB1 = target: LNX1_1, Q8TBB1
RAPGEF6, Q8TEU7 = target: T9, RAPGEF6, Q8TEU7
T9 sequence (Q8TEU7 525-625, limits assumed, looked up): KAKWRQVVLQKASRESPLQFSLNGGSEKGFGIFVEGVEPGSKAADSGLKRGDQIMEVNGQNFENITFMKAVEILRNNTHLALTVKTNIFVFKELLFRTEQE

APBA1_2, Q02410 = target: T10, APBA1_2, Q02410
T10 sequence (Q02410 742-832, limits assumed, looked up): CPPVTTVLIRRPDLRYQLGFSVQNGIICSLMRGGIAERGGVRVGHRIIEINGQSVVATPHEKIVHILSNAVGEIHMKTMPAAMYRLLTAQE

ARHGEF11, O15085 = target: T11, ARHGEF11, O15085
T11 sequence (O15085 42-136, limits assumed, looked up): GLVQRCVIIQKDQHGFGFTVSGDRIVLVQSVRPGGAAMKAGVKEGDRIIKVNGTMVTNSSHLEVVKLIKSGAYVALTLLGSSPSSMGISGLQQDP

Inadl_4, Q8NI35 = target: Inadl_4, Q8NI35
GRIP2_5, Q9C0E4 = target: GRIP2_5, Q9C0E4
PARD3B_1, Q8TEW8 = target: T12, PARD3B_1, Q8TEW8
T12 sequence (Q8TEW8 196-299, limits assumed, looked up): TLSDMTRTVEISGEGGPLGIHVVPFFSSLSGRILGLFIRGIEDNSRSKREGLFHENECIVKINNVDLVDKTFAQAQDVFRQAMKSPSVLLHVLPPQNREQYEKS

GRIP1_3, Q9Y3R0 = target: T13, GRIP1_3, Q9Y3R0
T13 sequence (Q9Y3R0 247-346, limits assumed, looked up): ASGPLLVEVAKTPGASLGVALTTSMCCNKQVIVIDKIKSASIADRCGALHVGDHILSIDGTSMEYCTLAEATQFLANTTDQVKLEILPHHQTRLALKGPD

PDZD7_3, Q9H5P4 = target: T14, PDZD7_3, Q9H5P4
T14 sequence (Q9H5P4 857-944, limits assumed, looked up): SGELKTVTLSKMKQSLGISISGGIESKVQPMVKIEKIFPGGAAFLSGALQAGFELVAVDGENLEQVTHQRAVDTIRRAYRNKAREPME

[1] = plain residues with an end cap or a label only (N-terminal biotin on a linker: ttds)
[2] = plain residues with an end cap or a label only (N-terminal biotin on a linker: ahx)

Measured: pKd

Chain of PARD3_3, Q8TEW0 (Q8TEW0 582-685): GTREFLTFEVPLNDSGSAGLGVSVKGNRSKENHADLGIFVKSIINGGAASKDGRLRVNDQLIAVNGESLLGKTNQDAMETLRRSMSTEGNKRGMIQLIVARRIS
Chain of GRIP2_5, Q9C0E4 (Q9C0E4 544-642): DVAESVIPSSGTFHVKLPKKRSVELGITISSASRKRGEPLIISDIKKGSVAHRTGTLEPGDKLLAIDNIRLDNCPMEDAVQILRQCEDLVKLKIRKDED
Chain of GRIP2_4, Q9C0E4 (Q9C0E4 446-548): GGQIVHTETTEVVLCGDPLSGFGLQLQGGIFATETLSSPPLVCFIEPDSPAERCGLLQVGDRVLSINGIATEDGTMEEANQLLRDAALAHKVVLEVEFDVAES
Chain of FRMPD3, Q5JV73 (Q5JV73 12-100): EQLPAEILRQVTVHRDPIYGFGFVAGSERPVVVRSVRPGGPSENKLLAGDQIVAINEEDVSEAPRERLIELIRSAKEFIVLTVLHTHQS
Chain of LNX1_3, Q8TBB1 (Q8TBB1 500-596): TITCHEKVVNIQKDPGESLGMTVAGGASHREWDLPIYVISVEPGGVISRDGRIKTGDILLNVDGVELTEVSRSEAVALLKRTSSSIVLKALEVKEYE
Chain of LNX1_1, Q8TBB1 (Q8TBB1 261-371): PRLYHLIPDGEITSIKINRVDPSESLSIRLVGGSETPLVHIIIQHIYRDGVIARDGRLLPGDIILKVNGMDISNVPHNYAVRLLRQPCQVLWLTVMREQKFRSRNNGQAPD
Chain of GRASP, Q7Z6J2 (Q7Z6J2 96-193): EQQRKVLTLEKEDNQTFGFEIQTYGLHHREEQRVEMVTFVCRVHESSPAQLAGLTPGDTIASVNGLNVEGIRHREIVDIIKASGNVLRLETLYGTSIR
Chain of SCRIB_2, Q14160 (Q14160 857-960): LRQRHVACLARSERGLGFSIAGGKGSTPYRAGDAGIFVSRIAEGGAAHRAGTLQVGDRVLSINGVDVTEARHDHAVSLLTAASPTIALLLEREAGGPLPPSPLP
Chain of Inadl_4, Q8NI35 (Q8NI35 547-651): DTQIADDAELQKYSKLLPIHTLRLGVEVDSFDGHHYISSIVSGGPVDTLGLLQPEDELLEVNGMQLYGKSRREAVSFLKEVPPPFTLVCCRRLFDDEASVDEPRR

DLDEEEDTHL [PODXL, O00592]
3.6: FRMPD3, Q5JV73; [1]
3.59: PDZD7_3, Q9H5P4; [1]
4.22: PARD3_3, Q8TEW0; [1]
3.48: RAPGEF6, Q8TEU7; [1]
below the threshold: SCRIB_2, Q14160; [1] | DLG3_2, Q92796; [1] | GRIP1_5, Q9Y3R0; [1] | DVL3, Q92997; [1] | SNTG2, Q9NY99; [1] | PDZRN3_1, Q9UPQ7; [1] | APBA1_1, Q02410; [1] | TX1BP3, O14907; [1] | LNX1_3, Q8TBB1; [1] | GRIP2_4, Q9C0E4; [1] | LIN7B, Q9HAP6; [1] | GRASP, Q7Z6J2; [1] | LNX1_1, Q8TBB1; [1] | APBA1_2, Q02410; [1] | ARHGEF11, O15085; [1] | Inadl_4, Q8NI35; [1] | GRIP2_5, Q9C0E4; [1] | PARD3B_1, Q8TEW8; [1] | GRIP1_3, Q9Y3R0; [1]

KDECVIATEV [DLL1, O00548]
3.72: LNX1_1, Q8TBB1; [2]
4.31: GRASP, Q7Z6J2; [2]
4.51: ARHGEF11, O15085; [2]
3.99: APBA1_2, Q02410; [2]
3.82: SCRIB_2, Q14160; [2]
below the threshold: FRMPD3, Q5JV73; [2] | GRIP1_5, Q9Y3R0; [2] | DVL3, Q92997; [2] | SNTG2, Q9NY99; [2] | PARD3_3, Q8TEW0; [2] | PDZRN3_1, Q9UPQ7; [2] | APBA1_1, Q02410; [2] | TX1BP3, O14907; [2] | LNX1_3, Q8TBB1; [2] | GRIP2_4, Q9C0E4; [2] | LIN7B, Q9HAP6; [2] | RAPGEF6, Q8TEU7; [2] | Inadl_4, Q8NI35; [2] | GRIP2_5, Q9C0E4; [2] | PARD3B_1, Q8TEW8; [2] | GRIP1_3, Q9Y3R0; [2]
4.63: PDZD7_3, Q9H5P4; [2]
4.52: DLG3_2, Q92796; [2]

KQVVPFSSSV [GDA, Q9Y2T3]
3.86: GRASP, Q7Z6J2; [1]
4.31: TX1BP3, O14907; [1]
3.55: LNX1_3, Q8TBB1; [1]
below the threshold: SCRIB_2, Q14160; [1] | FRMPD3, Q5JV73; [1] | GRIP1_5, Q9Y3R0; [1] | DVL3, Q92997; [1] | SNTG2, Q9NY99; [1] | PARD3_3, Q8TEW0; [1] | PDZRN3_1, Q9UPQ7; [1] | APBA1_1, Q02410; [1] | GRIP2_4, Q9C0E4; [1] | LIN7B, Q9HAP6; [1] | RAPGEF6, Q8TEU7; [1] | APBA1_2, Q02410; [1] | Inadl_4, Q8NI35; [1] | GRIP2_5, Q9C0E4; [1] | PARD3B_1, Q8TEW8; [1] | GRIP1_3, Q9Y3R0; [1]
3.59: PDZD7_3, Q9H5P4; [1]
4.38: DLG3_2, Q92796; [1]
3.84: LNX1_1, Q8TBB1; [1]
3.56: ARHGEF11, O15085; [1]
